Holding throughout (experiment): SPR
In general terms: Surface plasmon resonance follows binding to a sensor surface in real time, without labels.

Experiment [1] deals with T1, FcgRIIb (human, UniProt P31994).
T1 chain: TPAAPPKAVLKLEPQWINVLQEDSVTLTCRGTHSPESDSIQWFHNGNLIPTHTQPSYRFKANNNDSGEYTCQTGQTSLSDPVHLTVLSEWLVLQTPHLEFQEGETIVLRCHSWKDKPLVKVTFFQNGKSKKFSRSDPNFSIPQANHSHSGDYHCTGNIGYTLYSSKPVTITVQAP

Experiment [2] deals with T2, FcgRIa (human, UniProt P12314).
T2 chain: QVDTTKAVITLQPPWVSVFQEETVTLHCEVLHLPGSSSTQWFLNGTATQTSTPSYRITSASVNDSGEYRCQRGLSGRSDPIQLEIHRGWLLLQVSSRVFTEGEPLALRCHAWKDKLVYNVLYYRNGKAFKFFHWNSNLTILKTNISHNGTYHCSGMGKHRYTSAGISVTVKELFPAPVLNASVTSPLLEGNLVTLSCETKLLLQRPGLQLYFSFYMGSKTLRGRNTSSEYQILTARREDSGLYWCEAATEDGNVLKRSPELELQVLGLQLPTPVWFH

Experiment [3] concerns the target T3, FcgRIIIa F (human, UniProt P08637).
For experiment [4], the target named is T4, FcgRIIa R (human, UniProt P12318).
T4 chain: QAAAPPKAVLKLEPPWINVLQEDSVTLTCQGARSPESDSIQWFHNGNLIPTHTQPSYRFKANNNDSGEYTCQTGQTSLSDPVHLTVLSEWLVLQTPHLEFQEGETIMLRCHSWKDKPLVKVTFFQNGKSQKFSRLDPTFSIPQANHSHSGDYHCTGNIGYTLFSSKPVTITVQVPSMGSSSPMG

Experiment [5] has as its target T5, FcgRIIa H (human, UniProt P12318).
T5 chain: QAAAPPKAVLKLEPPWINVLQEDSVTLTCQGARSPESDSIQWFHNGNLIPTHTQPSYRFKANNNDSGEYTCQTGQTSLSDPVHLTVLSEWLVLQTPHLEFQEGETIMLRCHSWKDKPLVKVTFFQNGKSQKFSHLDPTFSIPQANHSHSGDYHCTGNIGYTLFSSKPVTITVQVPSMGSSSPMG

For experiment [6], the target named is FcgRIIIa V (human, UniProt P08637).
In experiment [7] the target is T3, FcgRIIIa F. This is another data set of the same source.
Experiment [8] has as its target T1, FcgRIIb.

Where two headings read alike, the source gives them in different places.

Sequence of FcgRIIIa V (P08637 17-208 F176V): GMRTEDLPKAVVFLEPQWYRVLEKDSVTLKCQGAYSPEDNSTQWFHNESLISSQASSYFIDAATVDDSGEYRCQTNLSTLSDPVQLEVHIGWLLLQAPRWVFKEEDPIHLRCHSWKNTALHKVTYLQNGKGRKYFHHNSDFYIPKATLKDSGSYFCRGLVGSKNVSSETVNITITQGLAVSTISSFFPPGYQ
T3 sequence (P08637 17-208): as the sequence (P08637 17-208 F176V) above, with V160F counted along it

B1: H240-Kn120/H240-Hl182/L73-k0 (antibody)
chain 1: QDQLVQSGAEVKKPGASVKVSCKASGFNIKDTYIQWVRQAPGQGLEWMGRIDPLRKQTKYREKFEGRVTITADTSTNTAYMELSSLRSEDTAVYYCVRSGREFDYWGQGTLVTVSSASTKGPSVFPLAPSSKSTSGGTAALGCLVKDYFPEPVTVSWNSGALTSGVHTFPAVLQSSGLYSLSSVVTVPSSSLGTQTYICNVNHKPSNTKVDKKVEPKSCDKTHTCPPCPAPEYYWGPMVFLFPPKPKDTLMISRTPEVTCVVVDVSDEDPEVKFNWYVDGVEVHNAKTKPREEQYNATYRVVSVLTVLHQDWLNGKEYKCKVSNKDLPAPIEKTISKAKGQPREPQVCTLPPSRDELTKNQVSLWCLVKGFYPSDIAVEWESNGQPENNYKTTPPVLDSDGSFFLYSKLTVDKSRWQQGNVFSCSVMHEALHNHYTQKSLSLSP
chain 2: QDQLVQSGAEVKKPGASVKVSCKASGFNIKDTYIQWVRQAPGQGLEWMGRIDPLRKQTKYREKFEGRVTITADTSTNTAYMELSSLRSEDTAVYYCVRSGREFDYWGQGTLVTVSSASTKGPSVFPLAPSSKSTSGGTAALGCLVKDYFPEPVTVSWNSGALTSGVHTFPAVLQSSGLYSLSSVVTVPSSSLGTQTYICNVNHKPSNTKVDKKVEPKSCDKTHTCPPCPHPELLGGPSVFLFPPKPKDTLMISRTPEVTCVVVDVSHEEPEVKFNWYVDGVEVHNAKTKPREEQYNSTYRVVSVLTVLHQDWLNGKEYKCKVSNDALPKPIEETISKAKGQPREPQVYTLPPSRCELTKNQVSLSCAVKGFYPSDIAVEWESNGQPENNYKTTPPVLDSDGSFFLVSKLTVDKSRWQQGNVFSCSVMHEALHNHYTQKSLSLSP
chain 3: DIQMTQSPSSLSASVGDRVTITCRASQDIHKYIAWYQQKPGQAPRLLIQYTSTLQPGVPSRFSGSGSGTDYTFTISSLQPEDIATYYCLQYEQLRTFGGGTKVEIKRTVAAPSVFIFPPSDEQLKSGTASVVCLLNNFYPREAKVQWKVDNALQSGNSQESVTEQDSKDSTYSLSSTLTLSKADYEKHKVYACEVTHQGLSSPVTKSFNRGEC
Take B1: the Kd in experiment [1] is 240 nM; in experiment [2] it was 0.18 nM; in experiment [3] it was 3.1 nM; in experiment [4], 40 nM; in experiment [5], 77 nM; in experiment [6] it was 0.29 nM.

B2: H240-Kn149/H240-Hl068/L73-k0 (antibody)
chain 1: QDQLVQSGAEVKKPGASVKVSCKASGFNIKDTYIQWVRQAPGQGLEWMGRIDPLRKQTKYREKFEGRVTITADTSTNTAYMELSSLRSEDTAVYYCVRSGREFDYWGQGTLVTVSSASTKGPSVFPLAPSSKSTSGGTAALGCLVKDYFPEPVTVSWNSGALTSGVHTFPAVLQSSGLYSLSSVVTVPSSSLGTQTYICNVNHKPSNTKVDKKVEPKSCDKTHTCPPCPAPEYYWGPMVFLFPPKPKDTLMISRTPEVTCVVVDVSDEDPEVKFNWYVDGVEVHNAKTKPREEQYNATYRVVSVLTVLHQDWLNGKEYKCKVSNKDWPAPIELTISKAKGQPREPQVCTLPPSRDELTKNQVSLWCLVKGFYPSDIAVEWESNGQPENNYKTTPPVLDSDGSFFLYSKLTVDKSRWQQGNVFSCSVMHEALHNHYTQKSLSLSP
chain 2: QDQLVQSGAEVKKPGASVKVSCKASGFNIKDTYIQWVRQAPGQGLEWMGRIDPLRKQTKYREKFEGRVTITADTSTNTAYMELSSLRSEDTAVYYCVRSGREFDYWGQGTLVTVSSASTKGPSVFPLAPSSKSTSGGTAALGCLVKDYFPEPVTVSWNSGALTSGVHTFPAVLQSSGLYSLSSVVTVPSSSLGTQTYICNVNHKPSNTKVDKKVEPKSCDKTHTCPPCPAPELLGGPSVFLFPPKPKDTLMISRTPEVTCVVVDVSHEEPEVKFNWYVDGVEVHNAKTKPREEQYNSTYRVVSVLTVLHQDWLNGKEYKCKVSNDALPKPIEETISKAKGQPREPQVYTLPPSRCELTKNQVSLSCAVKGFYPSDIAVEWESNGQPENNYKTTPPVLDSDGSFFLVSKLTVDKSRWQQGNVFSCSVMHEALHNHYTQKSLSLSP
chain 3: DIQMTQSPSSLSASVGDRVTITCRASQDIHKYIAWYQQKPGQAPRLLIQYTSTLQPGVPSRFSGSGSGTDYTFTISSLQPEDIATYYCLQYEQLRTFGGGTKVEIKRTVAAPSVFIFPPSDEQLKSGTASVVCLLNNFYPREAKVQWKVDNALQSGNSQESVTEQDSKDSTYSLSSTLTLSKADYEKHKVYACEVTHQGLSSPVTKSFNRGEC
As to B2, the dissociation constant Kd in experiment [1] is 150 nM; in experiment [2], 0.38 nM; in experiment [3] it was 1.5 nM; in experiment [4] it was 19 nM; in experiment [5] it was 26 nM; in experiment [6], 0.32 nM.

B3: H240-Kn120/H240-Hl170/L73-k0 (antibody)
chain 1: QDQLVQSGAEVKKPGASVKVSCKASGFNIKDTYIQWVRQAPGQGLEWMGRIDPLRKQTKYREKFEGRVTITADTSTNTAYMELSSLRSEDTAVYYCVRSGREFDYWGQGTLVTVSSASTKGPSVFPLAPSSKSTSGGTAALGCLVKDYFPEPVTVSWNSGALTSGVHTFPAVLQSSGLYSLSSVVTVPSSSLGTQTYICNVNHKPSNTKVDKKVEPKSCDKTHTCPPCPAPEYYWGPMVFLFPPKPKDTLMISRTPEVTCVVVDVSDEDPEVKFNWYVDGVEVHNAKTKPREEQYNATYRVVSVLTVLHQDWLNGKEYKCKVSNKDLPAPIEKTISKAKGQPREPQVCTLPPSRDELTKNQVSLWCLVKGFYPSDIAVEWESNGQPENNYKTTPPVLDSDGSFFLYSKLTVDKSRWQQGNVFSCSVMHEALHNHYTQKSLSLSP
chain 2: QDQLVQSGAEVKKPGASVKVSCKASGFNIKDTYIQWVRQAPGQGLEWMGRIDPLRKQTKYREKFEGRVTITADTSTNTAYMELSSLRSEDTAVYYCVRSGREFDYWGQGTLVTVSSASTKGPSVFPLAPSSKSTSGGTAALGCLVKDYFPEPVTVSWNSGALTSGVHTFPAVLQSSGLYSLSSVVTVPSSSLGTQTYICNVNHKPSNTKVDKKVEPKSCDKTHTCPPCPAPELLGGPSVFLFPPKPKDTLMISRTPEVTCVVVDVSHEEPEVKFNWYVDGVEVHNAKTKPREEQYNSTYRVVSVLTVLHQDWLNGKEYKCKVSNDAAPKPIEETISKAKGQPREPQVYTLPPSRCELTKNQVSLSCAVKGFYPSDIAVEWESNGQPENNYKTTPPVLDSDGSFFLVSKLTVDKSRWQQGNVFSCSVMHEALHNHYTQKSLSLSP
chain 3: DIQMTQSPSSLSASVGDRVTITCRASQDIHKYIAWYQQKPGQAPRLLIQYTSTLQPGVPSRFSGSGSGTDYTFTISSLQPEDIATYYCLQYEQLRTFGGGTKVEIKRTVAAPSVFIFPPSDEQLKSGTASVVCLLNNFYPREAKVQWKVDNALQSGNSQESVTEQDSKDSTYSLSSTLTLSKADYEKHKVYACEVTHQGLSSPVTKSFNRGEC
In the case of B3, the Kd in experiment [1] came out at 67 nM; in experiment [2] it was 0.19 nM; in experiment [3] it was 3.9 nM; in experiment [4], 8.6 nM; in experiment [5] it was 18 nM; in experiment [6], 0.93 nM.

B4: GpH7-TA7/GpH7-B3/GpL16-k0 (antibody)
chain 1: QVQLVQSGAEVKKPGASVTVSCKASGYTFTDYEMHWIRQPPGEGLEWIGAIDPKTGDTAYSESFQDRVTLTADKSTSTAYMELSSLTSEDTAVYYCTRFYSYTYWGQGTLVTVSSASTKGPSVFPLAPSSKSTSGGTAALGCLVKDYFPEPVTVSWNSGALTSGVHTFPAVLQSSGLYSLSSVVTVPSSSLGTQTYICNVNHKPSNTKVDKKVEPKSCDKTHTCPPCPAPEYLWGPSVFLFPPKPKDTLMISRTPEVTCVVVDVSHEDPEVKFNWYVDGVEVHNAKTKPREEQYNATYRVVSVLTVLHQDWLNGKEYKCKVSNKALPAPIEKTISKAKGQPREPQVYTLPPSRKELTKNQVSLTCLVKGFYPSDIAVEWESNGQPENNYKTTPPVLDSDGSFFLYSKLTVDKSRWQQGNVFSCSVMHEALHNRYTQKSLSLSP
chain 2: not shown
chain 3: DIVMTQSPLSLPVTPGEPASISCQASESLVHSNRNTYLHWYLQKPGQSPQLLIYKVSNRFSGVPDRFSGSGSGTDFTLKISRVEAEDVGVYYCSQNTHVPPTFGQGTKVEIERTVAAPSVFIFPPSDEQLKSGTASVVCLLNNFYPREAKVQWKVDNALQSGNSQESVTEQDSKDSTYSLSSTLTLSKADYEKHKVYACEVTHQGLSSPVTKSFNRGEC
In the case of B4, the Kd in experiment [7] was found to be 320 nM; in experiment [8] it was 4500 nM.

In general, Kd refers to a measure of binding affinity in units of concentration. High values mean weaker binding, low ones tighter binding.

The values above are taken from patent US10766960 (dated 2020).
